These results are taken from a protein production outcome set (Wang et al. 2014).

The nature of the data set: label from the status in PepcDB records.

Take “MARLIIPCRSSSLARVNLLGLLSRAPVPVRSSCLRSSANRLTQHRPFLTSEAICLRKNRFLPHSVDTHKQNSRRLICSVATESVPDKAEDSKMDAPKEIFLKNYTKPDYYFETVDLSFSLGEEKTIVSSKIKVSPRVKGSSAALVLDGHDLKLLSVKVEGKLLKEGDYQLDSRHLTLPSLPAEESFVLEIDTEIYPHKNTSLEGLYKSSGNFCTQCEAEGFRKITFYQDRPDIMAKYTCRVEGDKTLYPVLLSNGNLISQGDIEGGRHYALWEDPFKKPCYLFALVAGQLVSRDDTFTTRSGRQVSLKIWTPAEDLPKTAHAMYSLKAAMKWDEDVFGLEYDLDLFNIVAVPDFNMGAMENKSLNIFNSKLVLASPETATDADYAAILGVIGHEYFHNWTGNRVTCRDWFQLSLKEGLTVFRDQEFSSDMGSRTVKRIADVSKLRIYQFPQDAGPMAHPVRPHSYIKVYEKVWLFTNSVLLYAGAEVVRMYKTLLGTQGFRKGIDLYFERHDEQAVTCEDFFAAMRDANNADFANFLQWYSQAGTPVVKVVSSYNADARTFSLKFSQEIPPTPGQPTKEPTFIPVVVGLLDSSGKDITLSSVHHDGTVQTISGSSTILRVTKKEEEFVFSDIPERPVPSLFRGFSAPVRVETDLSNDDLFFLLAHDSDEFNRWEAGQVLARKLMLNLVSDFQQNKPLALNPKFVQGLGSVLSDSSLDKEFIAKAITLPGEGEIMDMMAVADPDAVHAVRKFVRKQLASELKEELLKIVENNRSTEAYVFDHSNMARRALKNTALAYLASLEDPAYMELALNEYKMATNLTDQFAALAALSQNPGKTRDDILADFYNKWQDDYLVVNKWFLLQSTSDIPGNVENVKKLLDHPAFDLRNPNKVYSLIGGFCGSPVNFHAKDGSGYKFLGDIVVQLDKLNPQVKTPKLTCVFAVTYIM”: the protein production result is “failed”.
For “MARLIVNALVSVPLAEIEIGFVRSGGAGGQNVNKLATAAHLRFDIAASSLPETCKTRLLDHRDRRMTAEGIIVIKAQRFGTQEKNREDALARLRGLILQALAQRRPRKPTRPTLAAKKKRLDEKTRHGEIKRLRRRIGDLEHHHHHH”, the protein production entry is “failed”.
Turning to “MARMAVTLTHVMAMHAQILKFIVTALFVVPLFLAPAEAQTSETDLLAQLQTAPESEANRLERELALIWDQSGSAAMDLLLKRGREALEDEDNARAVEHLSALTDHAPEFAEGWHARATALYRAGLYGPALDALHQALLLNPNNFNAIFGLGVMMREFGDLDRAARAFDRVLELHPHHKRAKAAKEQMAVQGLGQTL”, the protein production entry is listed as “failed”.
With “MARQLDEQIAGRFPVGQRLRVLDVGMGQGTQALRLARAGHQVTGVEQDATMIAVARETLAAEPEGIRSRMRLVQSDGRDTGVHFLPGSFDVVLCHGVLMYVEDPDALLAGLARMLAPGGLLSLLVRNADALAMRPGLAGDWASALTSFDTTAYTNRLGLDVRADRLDALTSTLAGIGAPLHAWYGVRVFTDTAADGAELPADVETLLAAEERAGRTDPYRQVAALLHLCGVRGGGAP”, the protein production entry is given as “failed”.
To “MARQTYGTTPWGAWFLDMLKAYDDSGRLSRGKTYANTGKVNSLVVNGQTAGAKVKGNYSPWYHVYFKFPPLSKTNKTAIRSILEKHPIELAGLRAGIMSPALIEALKKKKVRLIPARWNLIERDCTCPDSGDPCKHMAAVLFLLAKEIDHDPRLLFKLAGFDIDSINVPETEVFEKGGTQKLGLLQEQPVPLSLRKNETLNKAADLSSDSSVSETAHNSCELQSPLKFSLGESYLPLITNILPPEPNFSSSDFIIKLTEFYHKAVLNYGLNFYGQEKQSEKQEEKSVNPFLFARVKVNIDNIRKQKRAFPLEPKSPLTVNIKLGETHEINQTLLQAQNFYKTRNSLNEMSPSVKILFSLFALAGKLIQSSAFIPAVFTENKKLFIFWKSLSASSEIKADIFKFAASLTKDFFLPVGKWGRLYCAELLLTALLTEYAASLKFFPNKSYTKDKEIDKLFFLNEEIDISVPGKRNLDTVIYSWLSVLNYSNCGYEYRLTLEALKDDEFFLLSALVRKAKEKRIEAGDDSFALEAEAPFAELNTAAKRSKNPDDILRFPATLAAYLPALSILAIKKNVMLSREETGLFLQKSAKLLQRFGIDIVLPKSLKNILTPKPVISVKSVKGAGNIVSFLNIDDVLSYDRALMLGDTLIDIDEFKKLFLNKSGLVKFNDQFLLLDPEEVAKMLKALEKPADTKEVLQAVLSGNAVCSKPASEIIKNIFRQEEVPVPQNLNAELRPYQKQGYRWLYANIKSGFGCLLADDMGLGKTVQIISLMLSFKNSKEAESPFLVIAPASLLSNWEHEIAKFAPSLKTAVYHGAGRKFTTEADVIISTYQTMQKDIEKLKDKKVFCIILDEAQAIKNSGTKKAHAVKAIQARGRVALTGTPVENNLEDMRSIFDFFLPGYLGTADEFRKKWRIPIELHNSETEADDLKKITSPFLLRRLKTDPKVISDLPDKIITNQYCNLTPEQLAIYENLVETELHKVMGAETKIERQAYVLKLLTALKQVCNHPRAYDKETPIEMKYSGKAAVLIELLNEIISSGEKAIIFSQYVGTLDILKNIIQKELGTEPLLLHGQMPASKRKKAVEVFQTDSAYRIFLISLKAGGTGLNLTAANRVIHFDLWYNPAVEDQATDRAFRIGQTKNVFVHRLICSGTFEEKIDEMIQKKREISGMSISAGETWISKLSNEELAGLFKS” belongs “failed”; to “MASEAVNVWSRTSLILIMLSAAILVVAVGAVMNSGLVESLQVPLWEKWVILVFLFALIIGIIGPLSGVGGGVIFVGLGMAILPFNVDFIRGAGLVAALSTSLNSAPYFTKKGLANLRIVAPLVSVSTIFSVFGGVIGLWISNSFPEGSYYVKMSLGVVLLVLLLILSRSKNVEYPPPREKKDRLSEMIDLTGGWYEPTLNRIVTYEASNLPLAMLAFSGVGFLAGMFGLGAGWANVPILNLVMGLPLKAAVASSMLILAINDSASLWVYLANGAVLPIVVVPVVLGISIGSRIGSRLAAKTKPKVIKRLVIALIALSGVVNIIQGLSGIGLLNL”, “failed”.
Turning to “MASEEGQVIACHTVETWNEQLQKANESKTLVVVDFTASWCGPCRFIAPFFADLAKKLPNVLFLKVDTDELKSVASDWAIQAMPTFMFLKEGKILDKVVGAKKDELQSTIAKHLA”, the protein production entry was “failed”.
To “MASFDGQGFMMVDNSWVQTKAIDVESTTDISPYLSKILEDSVWNGNRSIVFDVYWDVKSVSTKSEWRLCSVKFSTKNFCLFLRLPNPFCDNLKDLYRFFASKFVTFVGVQIQEDLALLKENHGIVIRSSLEIGKLAAKARGTPIVEFLGTRELAHKILWYDMSRLDSIQSKWDEASSNDRLEAAAIEGWLIFNVYDQLQQ” belongs “failed”; to “MASIEQVAELISSLEQATLMAQQIGTTVGQNQLLQISSLRIAHQRLSAFLASIPTAEAEKSFSSVEPMQLGEEEKGEAEPAEEERYSAIEKVEEKMRECFIRNKRLKRPLSPSSAVVETSATEERSGRDYGFDSDPHATKLRALDLIYQFHA”, “failed”; to “MASISATLYELCEAVDHPVPTRDRDVEAVFAEIEFDAIEFCPIEFVILPIGDWLDIFGDKIVLSEPFESAVDCRLRDPGAVAELCRRARLLFRLDENRARTLVTEQVCECFRISHVGHCKRAISWFVNIGCAVLGFLSGFSQRSHKKLPSISALTFRVRMSNRQTRTPTSVLLPTVSWTAACDDVAAQLGPEDELLIIHDSKDDPVVDRKPLSENVQFIPAGDPVGCSGKANAIAAGMEAANHDRLVWTDDDFHHPPDWLDRLHKDYAEYGPTTELPAFVGQDPLAVLLEPVYVLGGTLGTYMGDHAWGGAVIFDRSALDEERFLSELRQTISDDGLLGEHISVTSVQRVRRVPMGGSLRQTLERHIRFNQIFSTHDPTVAKLSFGVLVAVLIGCVFFPLLAVVLTVLTAGVSASFGVRRASLLLTVPALVAAVPLGLYAFARDTFVWGGRRYRWHSKFDVEVLNE”, “failed”.
As for “MASKITQPDKYSGFLNNYSDLKETTSATGKPVLRWVDPSFDQSKYDSIVWNPITYYPVPKPSTQVGQKVLDKILNYTNTEMKEAIAQRKPLVTTAGPRSLIFRGAITGVDTSKEGLQFYEVVPVALVVAGTQMATGHRTMDTRLYFEGELIDAATNKPVIKVVRQGEGKDLNNESTPMAFENIKQVIDDMATDATMFDVN”, the protein production entry is on record as “failed”.
To “MASKSSFMATFNIVTLMLMVASSTVTARPLMKPSMGTSSPTTSLVYRLKLDEDTGYCWDSLMQLQHCSGELILFFLNGETYIGPGCCSAIRTIGRKCWPTMIGVLGFTAQEGDMLQGYCDGNDSDNNGEDHALASSTLPLSVNFKTTVVRSSASPSNP” belongs “failed”; to “MASLDEKWEAVDNFKSVVVDRERDVVRVTKELYDLHSNREQLRGVTSSCNYRLTIPFAPHHFGSGKTTFARTYLELVQRFGETSLSTFASDPLKRTFLEKLKRASLLYADLKELKPTDPKERNLEWAVYYLLIKAACLQSGLPQPDPDECFKELKLRSDALVQKIRSILNIPSDQYLLVAFDEVGVLDESLDEFHFKRTHDGRVRPYNDFFGIISQLCKEPDLFFIVVGKSKGLSIKNYVSSVSKVILHFISLSPLDASSIVEFLEKSLLKTPTQVPVCNVLCSSSFSVNELADSLLECTGGVPGLLTRAVNMLLNYIIARKFVLNHLWNEY”, “failed”; to “MASNGHTLRLVINRDKHDSVIRGLYLVTDHDDNLIPRVEAAIDGGARVVQYRNKNQDRESRLALGLELRELCRRRSIPFIVNDDLEMAVSLKADGLHLGQGDGDPREARRVLGPGKIIGVSTHTLSEALEAQAAGVDYIGLGAMFPSRSKEVEHVAGSELLAAIRSSISIPIVAIGGITRDNGASVIDAGADAVAVISAVLSHPDPALAATEIALLFNRRAPFPRGSVLTVAGSDSGGGAGIQADLKTVTLLGSYGSSVLTALTAQNTRGVSGIHGVPPAFVADQLDAVFSDIPVDVVKTGMLFSAETIVAIAAKLTEYRRRMVVVDPVMVAKGGANLIDRGAVSVLKERLFPLAYLVTPNIPEAERLTGANISDEESMREAARRLHRLGARNVLLKGGHLLAGDSVDILFDGAAFHRFVSPRILSKNTHGTGCTFASAIATYLAQGDPLREAIARAKRYITAAIRLAQPLGRGHGPVNHILAAEDVRDR”, “failed”.
To “MASNSRSSISPWTFSQNKMFERALAVYDKDTPDRWHNVAKAVGGKTVEEVKRHYDILVEDLINIETGRVPLPNYKTFESNSRSINDFDTRYITKYLYMMLSIYFDNHSSDFEKFSQKVLVSYISLV” belongs “failed”; to “MASPATFQFSRTKLNLQINLVERKSPSKLSFPLLFRDQAKSTPIRFPVIRASSSSSASNHKPSLLKTTFISLTAAAALFSASFYFVNKRAAMTPVAVVETTLEKHLETQSNDVNALSLLTEIKFKSDKHEQAIVFLDRLIEIEPYERKWPAMKARILSYHGKSESAIEAFEEILEKDPIRVDAYHYLVMEYYNSKPKLTEIEKRINKVIRRCKKEKKTKEILGFRMLIAQIRFIEGKSVEAIRICEELVKEDPNDFTIYLFQGVVYTLMNKGEEAAKQFEHVARVIPRNHPSRETAARTTNSNEWRVIVAYDNVYCYLSTFARLSMASLFNKFG”, “failed”.
To “MASQVTAGSSGPVCFLTVGLRLPSARGQPVVSNFNQPRPPQRQRWVDSLLGVSLVALVVAAALPLLLPLVRLPGGSSARDRELAAAQATAFQTVLQRDPDNLSALRSLIGVYLQQQQLQAAIAPLQRLARLQPQQPAYRVLLAQTQAQLGDREAAAQTYRQILETAPTNLEALRGFTQLLLTQKQPTAAVDLLQKARQTDKITPADQVSIDLMLAQVYANQGQIDDAIALYDRSAQNNGRDFRPLLAKALLLKQQGDLQKATPIFQEAIAIAPAQYRDQIRQLSPASMPATPPTQPATKTPPTAPPPPPN” belongs “failed”.
